In data set [1] the test system is Luciferase reporter constructs carrying effector or effector complement sequences (HBV transcripts). In words: Dual-luciferase reporter assay (strand preference activity) in HEK293 cells. It counts as cell-based. Particulars: FIG. 1A; for activity of constructs in luciferase reporter assay: compared directly to corresponding shRNA constructs; for antisense (effector) strand activity (strand preference activity): relative to shRNA expressing counterparts. Here is the method:
Efficacy of the ddRNAi constructs expressing shmiRs or shRNAs of the disclosure to knockdown HBV transcripts is determined using dual-luciferase reporter assays in HEK293 cells.
Plasmid reporter constructs based on the pGL3 Luciferase Reporter Vector are constructed for effector and effector complement sequences from each of the shmiRs and shRNAs of the disclosure. Luciferase reporter constructs e.g., firefly luciferase reporter constructs, are generated by inserting the respective effector sequence or effector complement sequence of the shmiRs or shRNAs (as appropriate) with 20 bp flanking sequences at each end into the pGL3-control vector (Promega, Madison, Wis.). The inserts are subcloned using FseI and XbaI restriction enzyme sites following the luciferase reporter gene.
The dual-luciferase reporter assays are performed in HEK293 cells (ATCC). The HEK293 cells are cultured in DMEM medium containing 10% fetal bovine serum, 2 mM glutamine, penicillin (100 U/mL), and streptomycin (100 μg/mL) at 37° C. humid incubator with 5% CO2. The HEK293 cell are seeded at a density of 2×10^4 cells per well into 96-well culture plate one day prior to transfection.
ddRNAi expression constructs described in Example 1 (i.e., ddRNAi constructs designated HBV-shmiR1 to HBV-shmiR16, HBV-shmiRx3-v1 and HBV-shmiRx3-v2) are synthesized and inserted into an appropriate plasmid vector e.g., a pSsh vector, optionally with a proximal sequence element 7 (PSE7) for constructs expressing shRNAs.
Expression vectors comprising the ddRNAi expression constructs are co-transfected into HEK293 cells with a Luciferase reporter construct e.g., a firefly luciferase reporter construct, expressing an effector sequence or effector complement sequence of the corresponding shmiR or shRNA (as appropriate) at a ratio of 10:1 (ddRNAi expression construct: Luciferase reporter construct) using 0.3 uL of Lipofectamine 2000 reagent (Life Technologies, Carlsbad, Calif.) according to manufacturer's instructions. Cells are also transfected with 1 ng of a Renilla reporter construct (serving as a transfection control). 48 hour post-transfection, cell lysates are collected and analyzed using Dual Luciferase Reporter Assay System (Promega, Madison, Wis.). The firefly/Renilla activity ratios are determined for each transfection. Percentage inhibition of reporter expression is calculated relative to a negative control e.g., a construct expressing a random non-targeting sequence. The experiment is performed in replicate.
In addition, the three ddRNAi shmiR constructs (i.e., the ddRNAi shmiR constructs expressing shmiR6, shmiR15 and shmiR12 respectively) were compared for strand preference activity relative to their shRNA expressing counterparts.
The influence of addition of an ‘A’ nucleotide at the 3′ end or a ‘G’ nucleotide at the 5′ end of the sense sequence on thermodynamics of the shmiR variant was also assessed. The idea is to allow for the antisense (or effector) strand to be preferentially loaded into the RISC complex for functional RNAi activity.

The next data set relates to HepG2.2.15 cells. As to the kind of experiment: RNAi effector molecules (copies per cell) in HepG2.2.15 cells transduced with AdV vectors. The class given is cell-based, human. Particulars: HepG2.2.15, AdV vectors MOI 100, days 3-6; versus corresponding shRNA; FIG. 3. As for the experimental part:
Single and triple shmiR or shRNA AdV vectors were prepared by subcloning the ddRNAi expression constructs described in Example 1 (i.e., ddRNAi constructs designated HBV-shmiR1 to HBV-shmiR16, HBV-shRNA1-HBV-shRNA16, HBV-shmiRx3-v1, HBV-shmiRx3-v2 and HBV-shRNAx3-v1) into a adenovirus (AdV) construct for virus production (Vector Biolabs, Malvern Pa.).
HepG2.2.15 cells were infected with the HBV shmiR AdV vectors or HBV shRNA AdV vectors in cell suspension and cultured on multi-well plates. Each well contained a suspension of approximately 1.25×10^5 HepG2.2.15 cells and one of the single or triple HBV shmiR AdV vectors, or one of the single or triple HBV shRNA AdV vectors, at MOI-100. Following transduction, cells were cultured at 37° C. at 5% CO2 for 3-7 days and harvested for total RNA isolation using Qiagen miRNeasy mini kit (Valencia, Calif.) at 3, 4, 5, and 6 days post-transfection.
Total RNAs were quantified using the NanoDrop 1000 Spectrophotometer (Thermo Scientific) and then diluted to a working concentration of 10 ng/μl.
RNAi effector molecules expressed as copies per cell were determined for shmiR-12 and shmiR-15 (FIGS. 3A and 3B, respectively) when expressed in HepG2.2.15 cells from single or triple HBV shmiR AdV vector(s) using Qiagen's miScript PCR system (designed to quantitate RNA effector molecules processed from shmiR or shRNA). […]

Data set [2] deals with HBV transcripts at regions corresponding to HBsAg, HBcAg and HbxAg. In words: Inhibition of HBV transcripts in HepG2.2.15 cells transduced with AdV vectors (RT-qPCR, relative to GAPDH mRNA). Particulars: HepG2.2.15, MOI of 100, 3, 4, 5 and 6 days after infection; versus corresponding shRNA constructs; FIG. 4. The class given is cell-based, HBV (serotype ayw, genotype D). Here is the method:
Levels of inhibition of HBV transcripts at regions corresponding to HBV antigens HBsAg, HBcAg and HbxAg, relative to levels of GAPDH mRNA, are determined by normalizing the respective HBV mRNA transcript levels to GAPDH mRNA for each sample. Briefly, 100 ng of total RNA is used to synthesize cDNA using High Capacity cDNA Reverse Transcription Kit (Life Technologies, Carlsbad, Calif.) according to manufacturer instructions. Quantitative PCR amplifications of regions within HBV antigens HBsAg, HBcAg, HbxAg, and GAPDH is then performed using Power SYBR Green PCR Master Mix (Life Technologies) and the primer sets listed in Table 1. Standard real-time PCR conditions are used: initial denaturation at 95° C. for 10 min followed by 40 cycles of 95° C. for 15 sec and 60° C. for 1 min. […]
Levels of inhibition of HBV transcripts at regions corresponding to HBV antigens HBsAg, HBcAg and HbxAg, relative to levels of GAPDH mRNA, were determined according to the method described in Example 5.
Levels of inhibition of HBV transcripts at regions corresponding to HBV antigens HBsAg, HBcAg and HbxAg, relative to levels of GAPDH mRNA, for each shmiR of the disclosure (expressed individually, or as part of a triple construct), was determined at an MOI of 100 at 3, 4, 5 and 6 days after infection with HBV shmir or shRNA AdV vectors.
(Quantitative PCR measures a nucleic acid by following its amplification.)

The text below walks through data of patent US11535851B2, “Reagents for treatment of hepatitis B virus (HBV) infection and use thereof” (priority 2016, dated 2022).

B1: shmiR-12: shmiR targeting HBV; RNA SEQ ID NO: 54, encoded by DNA SEQ ID NO: 70 (nucleic acid)
chain: GGUAUAUUGCUGUUGACAGUGAGCGAGUCCCGUCGGCGCUGAAUCCACUGUGAAGCAGAUGGGUGGAUUCAGCGCCGACGGGACGCGCCUACUGCCUCGGACUUCAA
modifications: expressed or natural sequence
B1: in data set [1], the “activity of constructs in luciferase reporter assay” value (shortened to “activity of constructs”) is reported as “more effective than the corresponding shRNA constructs” and the “antisense (effector) strand activity (strand preference activity)” value (from here on “antisense (effector) strand activity”) is reported as “higher antisense (effector) strand activity relative to the corresponding shRNAs”. Also, the “levels of effector RNAi molecule (copies per cell)” value with HepG2.2.15 cells was “higher than the corresponding shRNAs”. Besides, the “silencing of HBV RNAs (HBsAg, HBcAg, HbxAg regions)” value in data set [2] is reported as “greater silencing of HBV RNAs compared to the corresponding shRNA expressing constructs”.

B2: shmiR-15: shmiR targeting HBV; RNA SEQ ID NO: 57, encoded by DNA SEQ ID NO: 73 (nucleic acid)
chain: GGUAUAUUGCUGUUGACAGUGAGCGAAGUGGUUCGUAGGGCUUUCCACUGUGAAGCAGAUGGGUGGAAAGCCCUACGAACCACUGCGCCUACUGCCUCGGACUUCAA
modifications: expressed or natural sequence
On to B2, for which, in data set [1], the “activity of constructs” value is “more effective than the corresponding shRNA constructs” and the “antisense (effector) strand activity” value was “higher antisense (effector) strand activity relative to the corresponding shRNAs”. Also, the “levels of effector RNAi molecule (copies per cell)” value in the data set on HepG2.2.15 cells is given as “higher than the corresponding shRNAs”. The “silencing of HBV RNAs (HBsAg, HBcAg, HbxAg regions)” value in data set [2] is on record as “greater silencing of HBV RNAs compared to the corresponding shRNA expressing constructs”.

B3: shmiR-6: shmiR targeting HBV; RNA SEQ ID NO: 48, encoded by DNA SEQ ID NO: 64 (nucleic acid)
chain: GGUAUAUUGCUGUUGACAGUGAGCGACAGGUCCCCUAGAAGAAGAAACUGUGAAGCAGAUGGGUUUCUUCUUCUAGGGGACCUGCCGCCUACUGCCUCGGACUUCAA
modifications: expressed or natural sequence
With B3, in data set [1], the “activity of constructs” value is listed as “more effective than the corresponding shRNA constructs” and the “antisense (effector) strand activity” value is “higher antisense (effector) strand activity relative to the corresponding shRNAs”.
